# Results: patent US20170218075A1 (HONG KONG UNIVERSITY OF SCIENCE AND TECHNOLOGY, published 2017)
# T1: extracellular domain of mouse EphB2 recombinant protein (mouse, UniProt P54763 19-543)
# T1 construct: extracellular domain; also called EphB2 receptor
# T1 sequence (looked up): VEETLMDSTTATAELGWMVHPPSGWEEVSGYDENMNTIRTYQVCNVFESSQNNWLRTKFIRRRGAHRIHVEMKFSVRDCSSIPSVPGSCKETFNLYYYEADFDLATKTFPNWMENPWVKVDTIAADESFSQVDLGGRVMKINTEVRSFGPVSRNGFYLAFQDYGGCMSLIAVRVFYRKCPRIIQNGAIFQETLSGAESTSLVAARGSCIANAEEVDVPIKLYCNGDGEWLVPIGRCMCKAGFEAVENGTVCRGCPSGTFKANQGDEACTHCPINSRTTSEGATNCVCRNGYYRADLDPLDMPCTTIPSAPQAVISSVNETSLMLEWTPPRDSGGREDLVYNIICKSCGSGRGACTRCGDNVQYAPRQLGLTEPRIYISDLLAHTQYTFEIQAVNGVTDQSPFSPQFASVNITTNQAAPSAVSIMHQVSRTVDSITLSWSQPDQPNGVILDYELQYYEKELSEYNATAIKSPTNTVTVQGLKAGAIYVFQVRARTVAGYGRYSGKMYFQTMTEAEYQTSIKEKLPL
# B1: IgG1 m101 (antibody, V domains shown)
# VH: QVQLQQSGAEVKKPGSSVKVSCKASGYTFTGYYMHWVRQAPGQGLEWMGGIIPIFGTANYAQKFQGRVTITADKSTSTAYMELSSLRSEDTAVYYCATAPMVCSSTSCYLRGFDYWGQGTLVTVSS
# VL: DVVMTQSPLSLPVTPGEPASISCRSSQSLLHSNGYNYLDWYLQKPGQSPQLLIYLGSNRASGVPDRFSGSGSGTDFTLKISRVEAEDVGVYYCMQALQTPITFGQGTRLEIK
# notes: Fully human IgG1 made from Fab E1 by re-cloning into the pDR12 vector; also called E1; IgG1 E1
# B2: Fab E1 (m101) (Fab, V domains shown)
# VH: B1 VH
# VL: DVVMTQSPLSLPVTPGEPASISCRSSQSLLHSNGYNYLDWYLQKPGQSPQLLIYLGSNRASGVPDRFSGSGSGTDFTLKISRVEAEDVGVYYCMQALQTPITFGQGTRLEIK
# notes: Soluble Fab from the phage library, detected with anti-FLAG antibody (FLAG tag); also called clone E1; Fab m101
# B3: IgG1 m105 (antibody, V domains shown)
# VH: EVQLVQSGAEVKKPGSSVKVSCKASGGTFSSYAISWVRQAPGQGLEWMGGIIPIFGTANYAQKFQGRVTMTRDTSISTAYMELSRLRSDDTAVYYCARELLYCSSTSCGTHGFDIWGQGTMVTVSS
# VL: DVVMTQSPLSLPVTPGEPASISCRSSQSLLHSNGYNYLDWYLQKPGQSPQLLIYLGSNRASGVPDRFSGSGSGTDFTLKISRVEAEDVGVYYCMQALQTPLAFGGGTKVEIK
# notes: Fully human IgG1 made from Fab E5 (pDR12 vector); also called E5; 105L
# B4: Fab E5 (m105) (Fab, V domains shown)
# VH: B3 VH
# VL: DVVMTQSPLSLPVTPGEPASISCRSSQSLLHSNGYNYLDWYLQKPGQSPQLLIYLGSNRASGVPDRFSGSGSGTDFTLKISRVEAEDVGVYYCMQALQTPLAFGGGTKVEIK
# notes: Soluble Fab, detected with anti-FLAG antibody; also called clone E5; Fab m105
# Columns and labels:
# [1] = molecular target: T2, GST-human EphA4 ligand binding domain (LBD) (human, UniProt P54764 29-209); assay: isothermal titration calorimetry, 20 µM LBD protein and 1 µM antibody
# T2 construct: also called EphA4 LBD; EphA4 LBD recombinant protein; not shown: glutathione S-transferase (GST) tag
# Protocol: FIG. 5. […] Isothermal titration calorimetry (ITC) experiments were carried out by incubating 20 μM Eph LBD protein in the cell with 1 μM antibodies.
# To investigate the binding property of the IgG1s m101, m105, and m119 to EphA4, GST-human EphA4 ligand binding domain (LBD) was expressed and purified. The recognition of EphA4 LBD by the 3 IgG1s m101, m105, and m119 was determined by Western blot analysis. The EphA4 LBD protein was run on SDS-PAGE and they were immunoblotted with the 3 IgG1s (FIG. 4). The kinetics of the 3 IgG1s and EphA4 LBD interaction were further analyzed by conducting isothermal titration calorimetry (ITC) experiments. The heat generated by the interaction of EphA4 LBD recombinant protein with the IgG1s was measured with a sensitive calorimeter.
# [2] = molecular target: T3, human EphA4 fused with IgG1 Fc and Avi-tag (EphA4-Fc) (human, UniProt P54764 20-547); assay: ELISA, EphA4 coated, IgG1 detected with anti-Fab-HRP; human EphA4; IgG1 format
# T3 construct: also called human EphA4-Fc; not shown: human IgG1 Fc; Avi-tag
# Protocol: (§1) FIG. 3. Binding of IgG1s m101, m105, and m119 to mouse and human EphA4 measured by ELISA. Serially diluted IgG1s were added to EphA4-coated wells. HRP-conjugated anti-Fab Ab was used for detection.
# (§2) The EphA4 proteins were coated on a 96-well plate (Costar) at 50 ng/well in PBS overnight at 4° C. For phage ELISA, phages from each round of panning (polyclonal phage ELISA) or clones randomly picked from the infected TG 1 cells (monoclonal phage ELISA) were incubated with immobilized antigen. Bound phages were detected with anti-M13-HRP polyclonal Ab (Pharmacia, Piscataway, N.J.). For the soluble Fab binding assay, HRP-conjugated mouse anti-FLAG tag Ab (Sigma-Aldrich) was used to detect Fab binding. For the IgG1 binding assay, HRP-conjugated anti-Fab Ab (Sigma-Aldrich) was used for detection. For competitive ELISA assay, extracellular domain of mouse EphA4 recombinant protein or extracellular domain of mouse EphB2 recombinant protein was pre-coated on the ELISA plate and then incubated with different IgG1s for 1 hr at room temperature. After several washes with DPBS, the EphA4 or EphB2 proteins were then incubated with different biotinylated recombinant mouse ephrin-A/ephrin-B Fc chimera proteins for 1 hr at room temperature. The interaction of EphA4/EphB2 and ephrin-A/ephrin-B was determined via the streptavidin-biotin detection method.
# [3] = molecular target: T4, extracellular domain of mouse EphA4 recombinant protein (mouse, UniProt Q03137 20-547); assay: competitive ELISA, mouse EphA4 ECD coated; competitor biotinylated mouse ephrin-A1 Fc
# T4 construct: also called mouse EphA4 extracellular domain
# Protocol: The interaction of EphA4 and ephrin-A that attenuated by the IgG1s was determined via the streptavidin-biotin detection method. IC50 of the 3 IgG1s were determined.
# as §2
# [4] = molecular target: T3, human EphA4 fused with IgG1 Fc and …; assay: ELISA, EphA4 coated, Fab detected with anti-FLAG-HRP; human EphA4; Fab, not IgG1
# Protocol: FIG. 2. Binding of IgG1s E1 (m101), E2, E5 (m105), and E19 (m119) to mouse and human EphA4 measured by ELISA. Serially diluted IgG1s were added to EphA4-coated wells. HRP-conjugated anti-FLAG Ab was used for detection.
# as §2
# [5] = molecular target: T4, extracellular domain of mouse EphA4 …; assay: competitive ELISA, mouse EphA4 ECD coated; competitor biotinylated ephrin-B2 Fc; ligand Ephrin-B2
# Protocol: (§3) Extracellular domain of mouse EphA4 recombinant protein or extracellular domain of mouse EphB2 recombinant protein was first incubated with IgG1 m105, followed by incubating with different biotinylated recombinant mouse ephrin-A/ephrin-B Fc chimeric proteins. The effect of IgG1 m105 on the interaction of EphA4/EphB2 and ephrin-A/ephrin-B was then determined via the streptavidin-biotin detection method.
# as §2, with “After several washes with DPBS, the EphA4 or EphB2 proteins were then incubated with different biotinylated recombinant mouse ephrin-A/ephrin-B Fc chimera proteins for 1 hr at room temperature.” left out
# [6] = molecular target: T3, human EphA4 fused with IgG1 Fc and …; assay: ELISA, EphA4 coated, IgG1 detected with anti-Fab-HRP
# Protocol: as §1, §2
# [7] = molecular target: T4, extracellular domain of mouse EphA4 …; assay: competitive ELISA, mouse EphA4 ECD coated; competitor biotinylated mouse ephrin-A1 Fc; ligand mEphrin-A1
# Protocol: as §3
# as §2, with “After several washes with DPBS, the EphA4 or EphB2 proteins were then incubated with different biotinylated recombinant mouse ephrin-A/ephrin-B Fc chimera proteins for 1 hr at room temperature.” left out
# [8] = molecular target: T4, extracellular domain of mouse EphA4 …; assay: competitive ELISA, mouse EphA4 ECD coated; competitor biotinylated mouse ephrin-A5 Fc; ligand mEphrin-A5
# Protocol: as §3
# as §2, with “After several washes with DPBS, the EphA4 or EphB2 proteins were then incubated with different biotinylated recombinant mouse ephrin-A/ephrin-B Fc chimera proteins for 1 hr at room temperature.” left out
# [9] = molecular target: T1, extracellular domain of mouse EphB2 …; assay: competitive ELISA: mouse EphB2 extracellular domain coated, incubated with IgG1 m105, then biotinylated mouse ephrin-B2 Fc; streptavidin-biotin detection, % of inhibition
# Protocol: as §3
# as §2, with “After several washes with DPBS, the EphA4 or EphB2 proteins were then incubated with different biotinylated recombinant mouse ephrin-A/ephrin-B Fc chimera proteins for 1 hr at room temperature.” left out
# [10] = molecular target: EphA4 in cultured hippocampal neurons (rat, UniProt D3ZZK3 20-986); assay: cell-based or functional assay
# [11] = molecular target: T4, extracellular domain of mouse EphA4 …; assay: competitive ELISA: mouse EphA4 extracellular domain coated, incubated with IgG1 m105, then biotinylated mouse ephrin-B2 Fc; streptavidin-biotin detection, % of inhibition
# Protocol: as §3
# as §2, with “After several washes with DPBS, the EphA4 or EphB2 proteins were then incubated with different biotinylated recombinant mouse ephrin-A/ephrin-B Fc chimera proteins for 1 hr at room temperature.” left out
# T4 sequence (Q03137 20-547 limits assumed): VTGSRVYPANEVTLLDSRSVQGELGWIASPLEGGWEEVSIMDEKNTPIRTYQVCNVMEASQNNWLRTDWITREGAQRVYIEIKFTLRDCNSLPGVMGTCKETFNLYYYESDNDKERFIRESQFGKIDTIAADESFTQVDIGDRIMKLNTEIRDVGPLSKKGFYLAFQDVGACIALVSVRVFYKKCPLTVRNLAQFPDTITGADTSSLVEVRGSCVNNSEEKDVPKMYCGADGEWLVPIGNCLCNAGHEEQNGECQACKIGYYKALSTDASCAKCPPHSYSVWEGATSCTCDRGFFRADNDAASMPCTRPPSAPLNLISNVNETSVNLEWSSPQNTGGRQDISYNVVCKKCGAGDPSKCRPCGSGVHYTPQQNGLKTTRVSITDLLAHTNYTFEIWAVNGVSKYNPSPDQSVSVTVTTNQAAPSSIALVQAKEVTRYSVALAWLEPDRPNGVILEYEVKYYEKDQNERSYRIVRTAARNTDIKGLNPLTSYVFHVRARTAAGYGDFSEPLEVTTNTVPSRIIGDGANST
# T3 sequence (P54764 20-547 limits assumed): as the sequence (Q03137 20-547 limits assumed) above, with A59P, S121N, G124V, Q250R, N251S, S270T, R378K, S406N counted along it
# T2 sequence (P54764 29-209): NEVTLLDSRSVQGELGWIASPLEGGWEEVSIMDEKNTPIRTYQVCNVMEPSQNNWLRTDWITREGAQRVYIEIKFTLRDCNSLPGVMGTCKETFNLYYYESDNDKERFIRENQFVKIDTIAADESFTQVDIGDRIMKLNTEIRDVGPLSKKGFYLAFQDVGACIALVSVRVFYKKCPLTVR
binder,measurement,setting,value
B1,Kd,[1],~83 nM
same,EC50,[2],1 nM
same,IC50,[3],0.71 nM
B2,EC50,[4],5 nM
B3,IC50,[5],1.81 nM
same,EC50,[6],< 1 nM
same,IC50,[7],0.34 nM
same,Kd,[1],~8.6 nM
same,IC50,[8],22.7 nM
same,IC50,[3],0.35 nM
same,binding result,[9],no binding (tested: 1000 nM (Log [nM] = 3))
same,IC50 of inhibition of ephrin-A1 mediated EphA4 clusters,[10],4.16 µg/mL
same,IC50,[11],0.78 nM
B4,EC50,[4],2 nM
